Test results: the RNAGym collection of RNA variant scans (doi:10.7554/elife.80360)

B1: Hairpin Ribozyme (parent)
chain: GUCCUCUUUCACGUGCGCGUGAAAGAGAGAAGUGAACCAGAGAAACACACGUUGUGGUAUAUUACCUGGUA

Variants of: B1
Test: self-cleavage, relative activity (ratio to wild type); higher = more cleavage; co-transcriptional

Going from GUCCUCUUUCACGUGCGCGUGAUAGAGAGAAGUAAACCAGAGAAACACACGUUGUGGUAUAUUACCUGGUA [A23U G34A] to GUCCUCUUUCACGUGCGCGUGAACGAGAGGAGUGAACCAGAGAAACACACGUUGUGGUAUAUUACCUGGUA [A24C A30G], the self-cleavage falls from 0.956 to 0.201.

First: GUCCUCUUUCACGUGCGCGUGAUAGAGAGAAGUGAACCAGAGAAACACACGUUGUGGUAUAUUACCUCGUA [A23U G68C]
Second: GUCCUCUUUCACGUGCGCGUGAUAGAGAGAAGUGAACCAGAGAAACACACGUUGUGGUAUAUUACCUAGUA [A23U G68A]
The self-cleavage of the first is lower: 0.139 for the first, 0.184 for the second.

Compared with GUCCUCUUUCACGUGCGCGUGAACGAGAGAAGUGAAUCAGAGAAACACACGUUGUGGUAUAUUACCUGGUA [A24C C37U], GUCCUCUUUCACGUGCGCGUGAACGAGAGAAGUGAAGCAGAGAAACACACGUUGUGGUAUAUUACCUGGUA [A24C C37G] is lower in self-cleavage: 0.455 for the first, 0.242 for the second.

Compared with GUCCUCUUUCACGUGCGCGUGAACGAGAGAAGUGAACCAGAGAAACAUACGUUGUGGUAUAUUACCUGGUA [A24C C48U], GUCCUCUUUCACGUGCGCGUGAUAGAUAGAAGUGAACCAGAGAAACACACGUUGUGGUAUAUUACCUGGUA [A23U G27U] is higher in self-cleavage: 0.216 for the first, 0.289 for the second.

Going from GUCCUCUUUCACGUGCGCGUGAUAGAGAGAAGUGAACCAGAGGAACACACGUUGUGGUAUAUUACCUGGUA [A23U A43G] to GUCCUCUUUCACGUGCGCGUGAACGAGAGAAGUGGACCAGAGAAACACACGUUGUGGUAUAUUACCUGGUA [A24C A35G], the self-cleavage rises from 0.204 to 0.864.

Going from GUCCUCUUUCACGUGCGCGUGAACGAGAGAAGUGAACCAGAGAAGCACACGUUGUGGUAUAUUACCUGGUA [A24C A45G] to GUCCUCUUUCACGUGCGCGUGAACGAGAGAAGUGAACCAGAGAACCACACGUUGUGGUAUAUUACCUGGUA [A24C A45C], the self-cleavage rises from 0.171 to 0.235.

First: GUCCUCUUUCACGUGCGCGUGAUAGAGAGAAGUGAACCAGCGAAACACACGUUGUGGUAUAUUACCUGGUA [A23U A41C]
Second: GUCCUCUUUCACGUGCGCGUGAUAGAGAGAAGUGAACCAGAGAAACACACGUUGUGGAAUAUUACCUGGUA [A23U U58A]
The self-cleavage of the first is higher: 0.798 for the first, 0.539 for the second.

Going from GUCCUCUUUCACGUGCGCGUGAACUAGAGAAGUGAACCAGAGAAACACACGUUGUGGUAUAUUACCUGGUA [A24C G25U] to GUCCUCUUUCACGUGCGCGUGAACGAGAGAAGUGAACCUGAGAAACACACGUUGUGGUAUAUUACCUGGUA [A24C A39U], the self-cleavage rises from 0.388 to 0.573.

Compared with GUCCUCUUUCACGUGCGCGUGAACGAGAGAAGUGAACCAUAGAAACACACGUUGUGGUAUAUUACCUGGUA [A24C G40U], GUCCUCUUUCACGUGCGCGUGAUAGAGAGAAGUGAACCAGAGAAACAGACGUUGUGGUAUAUUACCUGGUA [A23U C48G] is higher in self-cleavage: 0.132 for the first, 0.226 for the second.

Going from GUCCUCUUUCACGUGCGCGUGAACGAGAGAAGUGAACCAGAGAAACACACGUUGUGGUUUAUUACCUGGUA [A24C A59U] to GUCCUCUUUCACGUGCGCGUGAUAGAGAGAAGUGAACCAGAGAAACACACGUUAUGGUAUAUUACCUGGUA [A23U G54A], the self-cleavage rises from 0.204 to 0.551.

Compared with GUCCUCUUUCACGUGCGCGUGAACGAGAGAAGUGAACCAGAGAAACACACGUGGUGGUAUAUUACCUGGUA [A24C U53G], GUCCUCUUUCACGUGCGCGUGAACGAGAGAAGUGAACCAGAGAAACACACGUUGUGGUAUAUUACCUAGUA [A24C G68A] is lower in self-cleavage: 0.733 for the first, 0.233 for the second.

Compared with GUCCUCUUUCACGUGCGCGUGAACGAGAGAAGUGAGCCAGAGAAACACACGUUGUGGUAUAUUACCUGGUA [A24C A36G], GUCCUCUUUCACGUGCGCGUGAACGAGAGAAGUGAACCAGAUAAACACACGUUGUGGUAUAUUACCUGGUA [A24C G42U] is lower in self-cleavage: 0.928 for the first, 0.374 for the second.

Going from GUCCUCUUUCACGUGCGCGUGAUAGAGAGAAGUGAACCAGAGAAACACACGUAGUGGUAUAUUACCUGGUA [A23U U53A] to GUCCUCUUUCACGUGCGCGUGAUAGAGAGAAGUGAACCAGAGAAACACACGUGGUGGUAUAUUACCUGGUA [A23U U53G], the self-cleavage falls from 0.969 to 0.696.

Going from GUCCUCUUUCACGUGCGCGUGAUAGAGAGAAGUGAACCAGAGAAACACACGUCGUGGUAUAUUACCUGGUA [A23U U53C] to GUCCUCUUUCACGUGCGCGUGAUAGAGAGAAGUGAUCCAGAGAAACACACGUUGUGGUAUAUUACCUGGUA [A23U A36U], the self-cleavage falls from 0.935 to 0.491.

Going from GUCCUCUUUCACGUGCGCGUGAUAGAGAAAAGUGAACCAGAGAAACACACGUUGUGGUAUAUUACCUGGUA [A23U G29A] to GUCCUCUUUCACGUGCGCGUGAACGAGAGAAGUGAACCAGAGAAACACACGUUGUGGUAUAUUACCUGUUA [A24C G69U], the self-cleavage rises from 0.145 to 0.188.

Going from GUCCUCUUUCACGUGCGCGUGAUAGAGAGAAGAGAACCAGAGAAACACACGUUGUGGUAUAUUACCUGGUA [A23U U33A] to GUCCUCUUUCACGUGCGCGUGAUAGAGAGAAGUGAACCAGAGAAACACACGUUGUGGUAGAUUACCUGGUA [A23U U60G], the self-cleavage rises from 0.153 to 0.569.

Going from GUCCUCUUUCACGUGCGCGUGAUAGAGAGAAGUGAACCAGAGAAACACACGUUGUGGUACAUUACCUGGUA [A23U U60C] to GUCCUCUUUCACGUGCGCGUGAUAGAGAGAAGUGAACCAGAGACACACACGUUGUGGUAUAUUACCUGGUA [A23U A44C], the self-cleavage falls from 0.749 to 0.133.

Going from GUCCUCUUUCACGUGCGCGUGAUAGAGAGAAAUGAACCAGAGAAACACACGUUGUGGUAUAUUACCUGGUA [A23U G32A] to GUCCUCUUUCACGUGCGCGUGAUAGAGAGAAUUGAACCAGAGAAACACACGUUGUGGUAUAUUACCUGGUA [A23U G32U], the self-cleavage rises from 0.147 to 0.19.

Going from GUCCUCUUUCACGUGCGCGUGAUAGAGAGAAGUGAACCAGAGAAACACACGUUGUGGUAUAUUACUUGGUA [A23U C66U] to GUCCUCUUUCACGUGCGCGUGAUAGAGAGAAGUGAACCAGAGAAACACACGUUGUGGUAUAUUACGUGGUA [A23U C66G], the self-cleavage falls from 0.545 to 0.222.
